Entries after “also recorded” stand apart in the source; their conditions may differ.
Columns and labels:
Type in all cases: biochemical
[1] = pyruvate kinase-lactate dehydrogenase coupled assay, IP as variable substrate; details: 25° C.; for kinase activity (rate of IP turnover): relevant concentrations of IP and enzyme
Procedure: All specific activity and kinetic measurements were performed using the pyruvate kinase-lactate dehydrogenase coupled assay with reference to a previously established protocol (Lindsley, 2001, Methods Mol. Biol. 95:57-64.). The reaction includes the following components in a 200 ul volume: 7 U pyruvate kinase, 10 U lactate dehydrogenase, 2 mM phosphoenolpyruvate, 0.16 mM NADH, 50 mM TRIS HCl pH 8.0, 100 mM KCl, 8 mM MgCl2, 4 mM ATP, and variable concentrations of IP (purchased from Larodan Fine Chemicals). The reaction was initiated by the addition of IPK (0.15 ug) and was followed by observing the depletion of NADH at 340 nm over time, expressed as Δ(AU340)/Δt, which was converted to Δ(ADP)/Δt. These values were then plotted against substrate concentration in GraphPad Prism® (Version 5.01 for Windows) to compute the kinetic parameters kcat and Km using the “nonlinear regression enzyme kinetic analysis” option.
From the results discussed above, it is evident that His60 from IPK plays an important role in both substrate and product binding. This is accomplished through a hydrogen bonding interaction between the Nε2 atom of His60 and a non-bridging O atom from the terminal phosphate group on either the substrate (IP) or the product (IPP). From all crystal structure data, it is apparent that the Nε2 group of His60 (and not the Nδ1 group) is relevant for binding and may therefore be reasonably assumed by one skilled in the art to be relevant for IPK-mediated catalysis. To confirm this hypothesis, His60 was mutated to Ala, Asn, and Gln. The Asn and Gln mutations were made based on the rationale that their side chains contain N atoms that are isosteric with the Nδ1 and Nε2 groups on His, respectively.

[2] = pyruvate kinase-lactate dehydrogenase coupled assay, Km for ATP; details: 25° C.
Procedure: All specific activity and kinetic measurements were performed using the pyruvate kinase-lactate dehydrogenase coupled assay with reference to a previously established protocol (Lindsley, 2001, Methods Mol. Biol. 95:57-64.). […] The reaction was initiated by the addition of IPK (0.15 ug) and was followed by observing the depletion of NADH at 340 nm over time, expressed as Δ(AU340)/Δt, which was converted to Δ(ADP)/Δt. These values were then plotted against substrate concentration in GraphPad Prism® (Version 5.01 for Windows) to compute the kinetic parameters kcat and Km using the “nonlinear regression enzyme kinetic analysis” option.

[3] = coupled IPK / 5-epi-aristolochene synthase (TEAS) vial assay, GC-MS, FP to FPP conversion; details: 10 μM IPK, 150 μM FP, ATP, Mg, pH 8.0, 20 minutes at 55° C., 5-epi-aristolochene quantified by GC-MS
Procedure: FIG. 10: Assays of IPK and mutants. The single mutants of IPK, I86A and I146A, and the double mutant I86A/I146A, were tested with the C15-substrate farnesyl monophosphate (FP) using a coupled assay with a terpene cyclase (TEAS). In the first step of the reaction, IPK was incubated with magnesium, ATP, and FP at pH 8.0 for 20 minutes at 55° C. (assuming sufficient time for conversion of FP to FPP). In the second step of the reaction, a small sample of the first reaction was added to a glass vial containing magnesium and a sesquiterpene cyclase known as tobacco 5-epi-aristolochene synthase (TEAS), and this reaction was incubated overnight at 25° C. Assuming complete conversion of FPP to 5-epi-aristolochene, the reaction was extracted with ethyl acetate and the amount of 5-epi-aristolochene was quantified by GC-MS analysis.
FIGS. 11A-11B: Farnesyl phosphate (FP) phosphorylation by IPK chain length mutants. FIG. 11A: FIG. 11A depicts the coupled IPK-sesquiterpene synthase reaction used to test for FP transphosphorylation. FIG. 11B: FIG. 11B depicts comparative bar graph showing several IPK mutants qualitatively tested for their ability to convert FP to FPP, expressed as a percentage of maximal production of 5-epi-aristolocene produced from IPK-generated FPP using wild-type IPK and identical concentrations of wild-type tobacco 5-epi-aristolochene synthase incubated for equivalent lengths of time.
IPK mutants (at a final concentration of 10 μM) were incubated in a 50 μl reaction with 150 μM farnesyl monophosphate (FP), 7 mM MgCl2, 4 mM ATP, and 50 mM TRIS.HCl pH 8.0 for 20 minutes at 55° C. 10 μl of this reaction was then added to a 500 μl reaction containing 45 ug of the terpene cyclase 5-epi-aristolochene synthase (TEAS) and 10 mM MgCl2 in a 3-component buffer system (25 mM MES, 50 mM TRIS.HCl, 25 mM CAPS) at pH 7.0. A method known as the “vial assay” (O'Maille et al., 2004, Anal. Biochem. 335:210-217) was employed by overlaying this aqueous layer with 500 μl of ethyl acetate, incubating overnight at 25° C., and vortexing to extract the terpene product into the organic layer prior to quantitative GC-MS analysis. Both negative and positive control reactions were conducted as follows. For the negative control, no IPK was added to the first reaction. For the positive control, […] of FPP (equivalent to the amount that would be present assuming complete FP to FPP turnover) was added to the TEAS reaction.
Similar studies were conducted using FPP modeled into the active site of IPK. The reaction of IPK on FP to form FPP is depicted in FIG. 10. The I146A I86A single-residue mutations, and the […] double mutation were tested with the C15-substrate farnesyl monophosphate (FP) using a coupled assay with a terpene cyclase (TEAS). In the first step of the reaction, IPK was incubated with magnesium, ATP, and FP at pH 8.0 for 20 minutes at 55° C., which was judged as sufficient time for conversion of FP to FPP. In the second step of the reaction, a small sample of the first reaction was added to a glass vial containing magnesium and a sesquiterpene cyclase known as tobacco 5-epi-aristolochene synthase (TEAS), and this reaction was incubated overnight at 25° C. Assuming complete conversion of FPP to 5-epi-aristolochene, the reaction was extracted with ethyl acetate and the amount of 5-epi-aristolochene was quantitated by GC-MS analysis.

B1: IPK-Mjannaschii H60A: M. jannaschii IPK with His60 mutated to Ala (protein, UniProt Q60352 1-260, looked up, variant H60A)
Isopentenyl phosphate kinase: MLTILKLGGSILSDKNVPYSIKWDNLERIAMEIKNALDYYKNQNKEIKLILVHGGGAFGAPVAKKYLKIEDGKKIFINMEKGFWEIQRAMRRFNNIIIDTLQSYDIPAVSIQPSSFVVFGDKLIFDTSAIKEMLKRNLVPVIHGDIVIDDKNGYRIISGDDIVPYLANELKADLILYATDVDGVLIDNKPIKRIDKNNIYKILNYLSGSNSIDVTGGMKYKIDMIRKNKCRGFVFNGNKANNIYKALLGEVEGTEIDFSE
kinase activity (rate of IP turnover) [1]: immeasurable; also recorded: no measurable activity

B2: IPK-Mjannaschii H60N: M. jannaschii IPK with His60 mutated to Asn (protein, UniProt Q60352 1-260, looked up, variant H60N)
Isopentenyl phosphate kinase: MLTILKLGGSILSDKNVPYSIKWDNLERIAMEIKNALDYYKNQNKEIKLILVHGGGAFGNPVAKKYLKIEDGKKIFINMEKGFWEIQRAMRRFNNIIIDTLQSYDIPAVSIQPSSFVVFGDKLIFDTSAIKEMLKRNLVPVIHGDIVIDDKNGYRIISGDDIVPYLANELKADLILYATDVDGVLIDNKPIKRIDKNNIYKILNYLSGSNSIDVTGGMKYKIDMIRKNKCRGFVFNGNKANNIYKALLGEVEGTEIDFSE
kinase activity (rate of IP turnover) [1]: immeasurable; also recorded: no measurable activity

B3: IPK-Mjannaschii H60Q: M. jannaschii IPK with His60 mutated to Gln (protein, UniProt Q60352 1-260, looked up, variant H60Q)
Isopentenyl phosphate kinase: MLTILKLGGSILSDKNVPYSIKWDNLERIAMEIKNALDYYKNQNKEIKLILVHGGGAFGQPVAKKYLKIEDGKKIFINMEKGFWEIQRAMRRFNNIIIDTLQSYDIPAVSIQPSSFVVFGDKLIFDTSAIKEMLKRNLVPVIHGDIVIDDKNGYRIISGDDIVPYLANELKADLILYATDVDGVLIDNKPIKRIDKNNIYKILNYLSGSNSIDVTGGMKYKIDMIRKNKCRGFVFNGNKANNIYKALLGEVEGTEIDFSE
Km [1]: 34.5 µM
kcat [1]: 0.040 ± 0.002 s⁻¹
kinase activity (rate of IP turnover) [1]: able to turn over a measurable amount of IP
Km for IP, fold larger than wild type ([1]; versus wild type IPK): 8 fold
kcat, fold slower than wild type ([1]; versus wild type IPK): ~40 fold
kcat ([1]; listed as H60Q): 0.04 s⁻¹
Km [2]: 559 µM

B4: I146A: IPK single mutant, residue 146 Ile to Ala (protein, listed as Methanocaldococcus jannaschii)
chain: MLTILKLGGSILSDKNVPYSIKWDNLERIAMEIKNALDYYKNQNKEIKLILVHGGGAFGHPVAKKYLKIEDGKKIFINMEKGFWEIQRAMRRFNNIIIDTLQSYDIPAVSIQPSSFVVFGDKLIFDTSAIKEMLKRNLVPVIHGDAVIDDKNGYRIISGDDIVPYLANELKADLILYATDVDGVLIDNKPIKRIDKNNIYKILNYLSGSNSIDVTGGMKYKIEMIRKNKCRGFVFNGNKANNIYKALLGEVEGTEIDFSE
conversion (phosphorylation) of FP to FPP [3]: significant percentage of FP; also recorded: significant percentage of substrate

B5: I86A: IPK single mutant, residue 86 Ile to Ala (protein, listed as Methanocaldococcus jannaschii)
chain: MLTILKLGGSILSDKNVPYSIKWDNLERIAMEIKNALDYYKNQNKEIKLILVHGGGAFGHPVAKKYLKIEDGKKIFINMEKGFWEAQRAMRRFNNIIIDTLQSYDIPAVSIQPSSFVVFGDKLIFDTSAIKEMLKRNLVPVIHGDIVIDDKNGYRIISGDDIVPYLANELKADLILYATDVDGVLIDNKPIKRIDKNNIYKILNYLSGSNSIDVTGGMKYKIEMIRKNKCRGFVFNGNKANNIYKALLGEVEGTEIDFSE
conversion (phosphorylation) of FP to FPP [3]: significant percentage of FP; also recorded: significant percentage of substrate

B6: I86A/I146A: IPK double mutant I86A and I146A (protein)
chain: MLTILKLGGSILSDKNVPYSIKWDNLERIAMEIKNALDYYKNQNKEIKLILVHGGGAFGHPVAKKYLKIEDGKKIFINMEKGFWEAQRAMRRFNNIIIDTLQSYDIPAVSIQPSSFVVFGDKLIFDTSAIKEMLKRNLVPVIHGDAVIDDKNGYRIISGDDIVPYLANELKADLILYATDVDGVLIDNKPIKRIDKNNIYKILNYLSGSNSIDVTGGMKYKIEMIRKNKCRGFVFNGNKANNIYKALLGEVEGTEIDFSE
conversion (phosphorylation) of FP to FPP [3]: significant percentage of substrate
conversion (phosphorylation) of FP to FPP ([3]; listed as I146A/I146A): significant percentage of FP

B7: F83A/I86A/I156A: IPK triple mutant F83A, I86A, I156A (protein)
chain: MLTILKLGGSILSDKNVPYSIKWDNLERIAMEIKNALDYYKNQNKEIKLILVHGGGAFGHPVAKKYLKIEDGKKIFINMEKGAWEAQRAMRRFNNIIIDTLQSYDIPAVSIQPSSFVVFGDKLIFDTSAIKEMLKRNLVPVIHGDIVIDDKNGYRAISGDDIVPYLANELKADLILYATDVDGVLIDNKPIKRIDKNNIYKILNYLSGSNSIDVTGGMKYKIEMIRKNKCRGFVFNGNKANNIYKALLGEVEGTEIDFSE
conversion (phosphorylation) of FP to FPP [3]: greatest turnover

B8: I146V: IPK mutant, residue 146 Ile to Val (protein, listed as Methanocaldococcus jannaschii)
chain: MLTILKLGGSILSDKNVPYSIKWDNLERIAMEIKNALDYYKNQNKEIKLILVHGGGAFGHPVAKKYLKIEDGKKIFINMEKGFWEIQRAMRRFNNIIIDTLQSYDIPAVSIQPSSFVVFGDKLIFDTSAIKEMLKRNLVPVIHGDVVIDDKNGYRIISGDDIVPYLANELKADLILYATDVDGVLIDNKPIKRIDKNNIYKILNYLSGSNSIDVTGGMKYKIEMIRKNKCRGFVFNGNKANNIYKALLGEVEGTEIDFSE
conversion (phosphorylation) of FP to FPP [3]: decreased activity

B9: I156V: IPK mutant, residue 156 Ile to Val (protein, listed as Methanocaldococcus jannaschii)
chain: MLTILKLGGSILSDKNVPYSIKWDNLERIAMEIKNALDYYKNQNKEIKLILVHGGGAFGHPVAKKYLKIEDGKKIFINMEKGFWEIQRAMRRFNNIIIDTLQSYDIPAVSIQPSSFVVFGDKLIFDTSAIKEMLKRNLVPVIHGDIVIDDKNGYRVISGDDIVPYLANELKADLILYATDVDGVLIDNKPIKRIDKNNIYKILNYLSGSNSIDVTGGMKYKIEMIRKNKCRGFVFNGNKANNIYKALLGEVEGTEIDFSE
conversion (phosphorylation) of FP to FPP [3]: decreased activity

From US10273464B2, “Methods and isolated protein compositions for isoprenoid diphosphate synthesis” (The Salk Institute for Biological Studies, priority 2009, dated 2019)
